Experimental data as given in patent US20220242952A1 (MorphoSys, published 2022).
Several values for one entry are separate records, joined by “and”; a condition that tells them apart may be missing. Equal values may be shown once. Blank lines part the entries; values can stand above or below the molecule they belong to.

Assays:
CD19 [1] = target: T1, CD19 (human, UniProt P15391 20-556); assay: flow cytometry, QuantiBRITE PE quantitation, Toledo (DLBCL) cells
T1 sequence: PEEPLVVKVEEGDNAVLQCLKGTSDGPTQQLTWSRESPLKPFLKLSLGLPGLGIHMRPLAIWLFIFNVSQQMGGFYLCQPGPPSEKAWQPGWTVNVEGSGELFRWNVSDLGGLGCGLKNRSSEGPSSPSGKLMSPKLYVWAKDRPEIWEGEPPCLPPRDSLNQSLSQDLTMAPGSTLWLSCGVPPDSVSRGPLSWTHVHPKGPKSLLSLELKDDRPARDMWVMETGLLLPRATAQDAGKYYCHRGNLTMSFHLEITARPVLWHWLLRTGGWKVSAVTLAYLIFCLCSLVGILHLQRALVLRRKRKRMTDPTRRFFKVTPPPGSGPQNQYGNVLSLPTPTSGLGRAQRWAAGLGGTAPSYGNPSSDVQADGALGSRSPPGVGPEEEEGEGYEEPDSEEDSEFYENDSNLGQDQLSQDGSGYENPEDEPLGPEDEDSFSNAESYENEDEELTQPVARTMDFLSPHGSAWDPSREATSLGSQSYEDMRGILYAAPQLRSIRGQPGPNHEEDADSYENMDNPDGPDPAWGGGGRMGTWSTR

CD19 [2] = target: T1, CD19; assay: flow cytometry, QuantiBRITE PE quantitation, JVM-2 (MCL) cells
CD19 [3] = target: T1, CD19; assay: flow cytometry, QuantiBRITE PE quantitation, MEC-1 (CLL) cells
CD20 [4] = target: CD20 (UniProt P11836); assay: flow cytometry, QuantiBRITE PE quantitation, Toledo (DLBCL) cells
CD20 [5] = target: CD20 (UniProt P11836); assay: flow cytometry, QuantiBRITE PE quantitation, JVM-2 (MCL) cells
CD20 [6] = target: CD20 (UniProt P11836); assay: flow cytometry, QuantiBRITE PE quantitation, MEC-1 (CLL) cells
CD20 [7] = target: CD20 (UniProt P11836); assay: cell-based or functional assay
CD19 [8] = target: T1, CD19; assay: cell-based or functional assay

CD20, sequence (P11836 whole entry): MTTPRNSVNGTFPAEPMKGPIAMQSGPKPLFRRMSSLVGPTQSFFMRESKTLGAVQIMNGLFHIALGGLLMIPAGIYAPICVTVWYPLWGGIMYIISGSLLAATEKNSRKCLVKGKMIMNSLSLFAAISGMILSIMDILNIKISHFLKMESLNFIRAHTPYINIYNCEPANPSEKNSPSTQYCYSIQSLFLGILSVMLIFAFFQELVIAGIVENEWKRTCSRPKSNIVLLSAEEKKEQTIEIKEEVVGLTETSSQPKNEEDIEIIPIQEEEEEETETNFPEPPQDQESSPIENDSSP

Molecule: Rituximab (antibody)
% specific killing, ADCC with NK cells, JVM-2 cells, E:T 0.1:1, 10 ug/ml antibody (CD20 [7]): 0.5%
% specific killing, ADCC with NK cells, JVM-2 cells, E:T 3:1 and 6:1, 10 ug/ml antibody (CD20 [7]): 39% and 48%
% specific killing, ADCC with NK cells, MEC-1 cells, E:T 0.1:1, 10 ug/ml antibody (CD20 [7]): 3%
% specific killing, ADCC with NK cells, Toledo cells, E:T 0.1:1, 10 ug/ml antibody (CD20 [7]): 3%
% specific killing, ADCC with NK cells, Toledo cells, the two higher E:T ratios, 10 ug/ml antibody (CD20 [7]): 60%

B1: MOR00208 (antibody, human IgG1, kappa, V domains shown)
VH: EVQLVESGGGLVKPGGSLKLSCAASGYTFTSYVMHWVRQAPGKGLEWIGYINPYNDGTKYNEKFQGRVTISSDKSISTAYMELSSLRSEDTAMYYCARGTYYYGTRVFDYWGQGTLVTVSS
VL: DIVMTQSPATLSLSPGERATLSCRSSKSLQNVNGNTYLYWFQQKPGQSPQLLIYRMSNLNSGVPDRFSGSGSGTEFTLTISSLEPEDFAVYYCMQHLEYPITFGAGTKLEIKR
% specific killing, ADCC with NK cells, Toledo cells, the two higher E:T ratios, 10 ug/ml antibody (CD19 [8]): ~60%
specific killing ratio compared to Rituximab, individual donor 296, JVM-2 cells, lowest E:T ratio (CD19 [8]): ≤ 20 fold
specific killing ratio compared to Rituximab, individual donor 299, Toledo cells, lowest E:T ratio (CD19 [8]): ≤ 30 fold
specific killing ratio normalized to Rituximab, JVM-2 cells, E:T 0.1:1, median of donors (CD19 [8]): 5.3 fold
specific killing ratio normalized to Rituximab, Toledo cells, E:T 0.1:1, median of donors (CD19 [8]): 2.5 fold
specific killing ratio over Rituximab, MEC-1 cells, E:T 0.1:1, average of 17 donors (CD19 [8]): 1.6 fold

The remaining lines, values ahead:

antibodies bound per cell (ABC) (antibodies bound per cell) (CD19 [1]): 35700
antibodies bound per cell (ABC) (antibodies bound per cell) (CD19 [2]): 26200
antibodies bound per cell (ABC) (antibodies bound per cell) (CD19 [3]): 60900
Molecule: Biolegend CD19-PE (Biolegend #302208; clone HIB19) (antibody)

antibodies bound per cell (ABC) (antibodies bound per cell) (CD20 [4]): 28000
antibodies bound per cell (ABC) (antibodies bound per cell) (CD20 [5]): 15500
antibodies bound per cell (ABC) (antibodies bound per cell) (CD20 [6]): 71300
Molecule: Biolegend CD20-PE (Biolegend #302306; clone 2H7) (antibody)
